Measured values reported in the RNAGym collection of RNA variant scans (doi:10.1073/pnas.2313332121).
This sample holds only a part of the variants without activity.

B1: TPR 5TU (parent)
chain: GGAUCUUCUCGAUCUAACAAAAAAGACAAAUCUGCCACAAAGCUUGAGAGCAUCUUCGGAUGCAGAGGCGGCAGCCUUCGGUGGCGCGAUAGCGCCAACGUUCUCAACUAUGACACGCAAAACGCGUGCUCCGUUGAAUGGAGUUUAUCAUG

Variants of: B1
Assay: polymerase ribozyme fitness, log enrichment relative to wild type (log ratio); higher = more active; in vitro selection for triplet polymerase activity
Summary of the method: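 Mutant libraries of both subunits of a heterodimeric triplet polymerase ribozyme were PCR-built, transcribed, and selected once in triplicate, with frozen incubation at −7 °C and capture of gel-excised extended constructs on streptavidin beads before RT-PCR. Illumina sequencing of input and output libraries was filtered to genotypes with ≥10 input reads and ≥1 read per output. Fitness is the logarithm of genotype enrichment over wild-type enrichment, using inverse-variance-weighted replicate averages. The logarithm is base 2.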

First: G59C G81U G83A G124A G141U
Second: A12C A29C C85A G133A
The “polymerase ribozyme fitness (log ratio)” value of the first is higher: 0.692 for the first, at most -4.2 for the second.

Going from G83A G86U C118U to A26C G92C U104C C108U A115C, the “polymerase ribozyme fitness (log ratio)” value falls from -3.81 to at most -4.2.

First: C72U U145A
Second: G50A C125U
The “polymerase ribozyme fitness (log ratio)” value of the first is higher: 0.261 for the first, -1.35 for the second.

Going from A89C C123A G128U to A41U A91U G140A, the “polymerase ribozyme fitness (log ratio)” value falls from -3.31 to at most -4.2.

A20U A49G C85U A110G U148A and C5U A12U C18G G70C G80A C93G C95U A98G U144G cannot be ordered by “polymerase ribozyme fitness (log ratio)” value: at most -4.2 for the first, at most -4.2 for the second.

Compared with A17C A23U U104C, A17U G84A C123G is higher in “polymerase ribozyme fitness (log ratio)” value: at most -4.2 for the first, -0.525 for the second.

Going from A3C C85A U130A C132G to U53A U56G, the “polymerase ribozyme fitness (log ratio)” value rises from at most -4.2 to -1.11.

Going from U55A A60G to C5U A40G G84A A97G, the “polymerase ribozyme fitness (log ratio)” value falls from 0.676 to -3.39.

First: U4G C79A C93A
Second: A3G A60C C93U U145G
The “polymerase ribozyme fitness (log ratio)” value of the first is lower: at most -4.2 for the first, -2.53 for the second.

A20U A29U C43U A47G A49C C54G C95U C105A U145G A147G and C51G U56A A106U cannot be ordered by “polymerase ribozyme fitness (log ratio)” value: at most -4.2 for the first, at most -4.2 for the second.

First: G48A C54U G94C
Second: A12C G94U A150G
The “polymerase ribozyme fitness (log ratio)” value of the first is higher: -1.21 for the first, -2.61 for the second.

U77A U90A G133U A142C and A30U A52G U56G G80C G84U A98C A110U cannot be ordered by “polymerase ribozyme fitness (log ratio)” value: at most -4.2 for the first, at most -4.2 for the second.

A23U C54U G74U U78G and G67C G71C G86A A107U A121U U144G cannot be ordered by “polymerase ribozyme fitness (log ratio)” value: at most -4.2 for the first, at most -4.2 for the second.

C87G A142G and G25C A30U U78C C96G are within 0.2 log units of each other in “polymerase ribozyme fitness (log ratio)” value: -4.14 for the first, -3.97 for the second.

A24C U31A A52G and A21U G88A are the same in “polymerase ribozyme fitness (log ratio)” value: -3.62 for the first, -3.62 for the second.

First: A20C A47U C51U C105U U144A
Second: A16C A40C G83A A97G
The “polymerase ribozyme fitness (log ratio)” value of the first is lower: -2.59 for the first, -0.914 for the second.

U9C C54U C85A G136C and G25C C87A G100U cannot be ordered by “polymerase ribozyme fitness (log ratio)” value: at most -4.2 for the first, at most -4.2 for the second.

First: G11C G50U G84U A97G
Second: C51U C75U C118U
The “polymerase ribozyme fitness (log ratio)” value of the first is lower: -3.09 for the first, -1.3 for the second.

First: A28C C87G G117C A137U
Second: A106U
The “polymerase ribozyme fitness (log ratio)” value of the first is lower: at most -4.2 for the first, -0.23 for the second.

A30G C75A G94U A137C G143U A150U and A22U A23G G50C G74C cannot be ordered by “polymerase ribozyme fitness (log ratio)” value: at most -4.2 for the first, at most -4.2 for the second.

Going from A3C G25A A40U G71A C85U C96U A119C A121G G140C to U6A G25U, the “polymerase ribozyme fitness (log ratio)” value rises from at most -4.2 to -1.78.

Going from U9G A17C A52C G84A C118A to G124C A142U, the “polymerase ribozyme fitness (log ratio)” value rises from at most -4.2 to -0.985.

U7G A23G and G42A G86A C103U A119C cannot be ordered by “polymerase ribozyme fitness (log ratio)” value: at most -4.2 for the first, at most -4.2 for the second.

Going from G59A C93U to A29U U109G C149G, the “polymerase ribozyme fitness (log ratio)” value falls from -3.33 to at most -4.2.

C57U G94U C118U G143U and U6C G94A C105U U127A cannot be ordered by “polymerase ribozyme fitness (log ratio)” value: at most -4.2 for the first, at most -4.2 for the second.

First: C63A A64C
Second: C87U U90C U134A A138U G143A
The “polymerase ribozyme fitness (log ratio)” value of the first is higher: -1.46 for the first, at most -4.2 for the second.

C32U C69G C72U G88C U135G and A19U C43G C54G A91G cannot be ordered by “polymerase ribozyme fitness (log ratio)” value: at most -4.2 for the first, at most -4.2 for the second.

Going from A22U A28U C57U U77G C85G G92U to C54U G59C A97U, the “polymerase ribozyme fitness (log ratio)” value rises from at most -4.2 to -0.658.

Compared with A20U A52G G58A C76G G81A G86A A122C, A37G A40U C54G A60G is higher in “polymerase ribozyme fitness (log ratio)” value: at most -4.2 for the first, -2.66 for the second.

Compared with C32A G84A, G34A U55A C69A C76U G80C C87G A89C A107C C116U is lower in “polymerase ribozyme fitness (log ratio)” value: -3.57 for the first, at most -4.2 for the second.

First: A22U G46A A115G
Second: C57A G65A G84U A120G
The “polymerase ribozyme fitness (log ratio)” value of the first is higher: -1.54 for the first, -3.08 for the second.

A21C A30C A41U A64U C103G A115C A119C G128A G133U and G58C C87A cannot be ordered by “polymerase ribozyme fitness (log ratio)” value: at most -4.2 for the first, at most -4.2 for the second.

Compared with U56G C116G, U55A A147C is lower in “polymerase ribozyme fitness (log ratio)” value: -0.0028 for the first, -1.3 for the second.

Going from U31A A73C to U31C C76U C93G U102C U145G, the “polymerase ribozyme fitness (log ratio)” value falls from -4.13 to at most -4.2.

Going from A47U U77C C85A C93G A107U to A37U G58U C96U C118G U146C, the “polymerase ribozyme fitness (log ratio)” value rises from at most -4.2 to -3.08.

Compared with C72U C87U C105A, A16G C43A U55A G80C G117U G133C is lower in “polymerase ribozyme fitness (log ratio)” value: -3.79 for the first, at most -4.2 for the second.

U33A A47C C99A and A19G C35A G42C G68C G92A cannot be ordered by “polymerase ribozyme fitness (log ratio)” value: at most -4.2 for the first, at most -4.2 for the second.

First: C114U U135C
Second: A19U A26C A30U C35U A41U G84A U135A
The “polymerase ribozyme fitness (log ratio)” value of the first is higher: -2.95 for the first, at most -4.2 for the second.

A28U A66C C72U A91C C114U and U9C U15G C93A cannot be ordered by “polymerase ribozyme fitness (log ratio)” value: at most -4.2 for the first, at most -4.2 for the second.

C51U G67A C72A C123U C132A U134C and A37C A47C G88A G100A A137U cannot be ordered by “polymerase ribozyme fitness (log ratio)” value: at most -4.2 for the first, at most -4.2 for the second.

First: U82G C96U
Second: A22C C85A
The “polymerase ribozyme fitness (log ratio)” value of the first is lower: -2.13 for the first, -1.08 for the second.

Compared with U53A C85A G124U G143C U146C, A22U C87A is higher in “polymerase ribozyme fitness (log ratio)” value: at most -4.2 for the first, -4.14 for the second.
